Test results published in patent US20220235117A1.

Legend:
[1] = molecular target: hepatitis B virus surface antigen (HBsAg) (hepatitis B virus); assay: SPR, Biacore 3000, HBsAg on CM5 chip, antibody as analyte, pH 7.4
[2] = molecular target: hepatitis B virus surface antigen (HBsAg) (hepatitis B virus); assay: ELISA, commercial HBsAg plate, well held 30 min in PBS pH 6.0 after binding, GAH-HRP secondary antibody, OD(450/630)
[3] = molecular target: hepatitis B virus surface antigen (HBsAg) (hepatitis B virus); assay: ELISA, commercial HBsAg plate, well held 30 min in PBS pH 7.4 after binding, GAH-HRP secondary antibody, OD(450/630)
[4] = molecular target: hepatitis B virus surface antigen (HBsAg) (hepatitis B virus); assay: ELISA on commercial HBsAg plate, pH 6.0
[5] = molecular target: hepatitis B virus surface antigen (HBsAg) (hepatitis B virus); assay: ELISA on commercial HBsAg plate, pH 7.4
[6] = molecular target: hepatitis B virus surface antigen (HBsAg) (hepatitis B virus); assay: ELISA on commercial HBsAg plate, ratio of EC50 at pH 6.0 to pH 7.4

B1: anti-HBV humanized antibody M1D (antibody, V domains shown)
VH: QVQLQESGPGLVKPSETLSLTCTVSGGSITSNFWSWIRQPPGKGLEWIGYISGSGTYTDYNPSLKSRVTISVDTSKNQFSLKLSSVTAADTAVYYCARSHDYGSNDYAFDFWGQGTTVTVSS
VL: DIQMTQSPSSLSASVGDRVTITCRATQDISSSLNWYQQKPGKAPKLLIYYANRLQSGVPSRFSGSGSGTDFTLTISSLQPEDFATYYCQQYHSLPLTFGGGTKVEIK
In the case of B1, the Kd [1] is reported as 0.534 nM, the EC50 (read off the curve) [2] is reported as 0.01 µg/mL and the EC50 (read off the curve) [3] is reported as 0.01 µg/mL.

B2: A42-23 (antibody, human IgG1, kappa, V domains shown)
VH: QVQLQESGPGLVKPSETLSLTCTVSGGSITHNFWSWIRQPPGKGLEWIGYISGYDTYTDYNPSLKSRVTISVDTSKNQFSLKLSSVTAADTAVYYCARSHDYGHHDYAFDFWGQGTTVTVSS
VL: DIQMTQSPSSLSASVGDRVTITCRATQDIHHSLNWYQQKPGKAPKLLIYYANRLQSGVPSRFSGSGSGTDFTLTISSLQPEDFATYYCQQYHYLPLTFGGGTKVEIKR
B2 showed an EC50 [4] of 0.345 µg/mL, an EC50 [5] of 0.0127 µg/mL and an EC50(pH 6.0)/EC50(pH 7.4) [6] of 27.2.
